Kd data for two substances are collected here from PMC4303595.

The target of the experiment is Ccc1(1-109), truncated recombinant fragment of Ccc1 that contains its chromodomain (Cryptococcus neoformans). In words: fluorescence polarisation.

pKd: −log10 of the molar value.

One may read the pKd as −log10 of the Kd, conventionally taken in molar units. In the case of unlabeled Cryptococcus H3K27me2 peptide, the pKd is 3.92.

As to unlabeled Cryptococcus H3K27me3 peptide, the pKd was 4.55.
